US20190345234A1 (CENTRE HOSPITALIER UNIVERSITAIRE VAUDOIS, published 2019)

Biological target: Fc-gamma receptor I (CD64) (UniProt P12314 16-374)
Experiment: cell-based or functional assay

Fc-gamma receptor I (CD64), sequence (P12314 16-374 limits assumed, form in doubt): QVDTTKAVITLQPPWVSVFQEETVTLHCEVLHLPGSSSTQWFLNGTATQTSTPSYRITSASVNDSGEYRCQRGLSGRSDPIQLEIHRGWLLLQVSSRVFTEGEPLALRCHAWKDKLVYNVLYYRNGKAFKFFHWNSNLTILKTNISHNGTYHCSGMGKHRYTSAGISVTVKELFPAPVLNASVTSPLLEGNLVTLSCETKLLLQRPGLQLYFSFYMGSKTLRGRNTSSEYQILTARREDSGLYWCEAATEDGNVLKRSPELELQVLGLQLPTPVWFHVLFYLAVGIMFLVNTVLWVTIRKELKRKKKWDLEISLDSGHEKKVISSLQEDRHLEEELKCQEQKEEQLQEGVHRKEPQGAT

B1: IgG1 LN01 antibody (antibody, V domains shown)
VH: EVQLVESGPGLVQPWGTLSLTCRVSGDSVSNDNYYWAWIRQTPGRELQVIGTIYYSGTTYYNPSLRNRVTISLDKSVNVVSLRLGSVSAADTAQYYCVRMPSHGFWSTSFSYWYFDLWGRGHFVAVSW
VL: DIQMTQSPSSLSASVGDKVTITCRASQSVTKYLNWYQFKTGQAPRILIYGTYTLLSGVSPRFSGAGSGSLYTLTITNIQPEDFATYYCQQAHSTPWTFGQGTHVAAN
- neutralizing activity on TZM-bl cells expressing Fc-gamma receptor I against parental TZM-bl cells: 100 fold
